Experimental data from article PMC11915804, “In situ structures of the contractile nanomachine myophage Mu in both its extended and contracted states” (Journal of Virology, 2025).

T1: hub protein gp44 (phage Mu, UniProt P08558 1-379)
T1 construct: baseplate hub protein gp44 of myophage Mu, as it stands in the virion; Trimer; Model deposited here; source: phage Mu virions grown on E. coli (ATCC 23724), purified (PEG 8000/NaCl precipitation, CsCl gradient)
T1 sequence (looked up): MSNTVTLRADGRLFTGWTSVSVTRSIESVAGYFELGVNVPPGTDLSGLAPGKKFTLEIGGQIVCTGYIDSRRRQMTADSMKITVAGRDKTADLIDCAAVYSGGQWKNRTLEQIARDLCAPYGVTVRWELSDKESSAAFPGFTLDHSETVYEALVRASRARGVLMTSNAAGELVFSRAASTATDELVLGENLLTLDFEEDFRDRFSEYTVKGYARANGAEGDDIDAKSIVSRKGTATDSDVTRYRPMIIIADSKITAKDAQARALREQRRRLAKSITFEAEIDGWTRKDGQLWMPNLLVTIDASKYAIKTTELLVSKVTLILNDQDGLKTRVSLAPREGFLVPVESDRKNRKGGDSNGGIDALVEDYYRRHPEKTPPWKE

T2: baseplate wedge protein 2 (BW2) gp47 (phage Mu, UniProt Q9T1V2 1-360)
T2 construct: baseplate wedge protein 2 gp47 of myophage Mu, as it stands in the virion; Two conformers (BW2-i, BW2-o) in each of the six wedges; Model deposited here; also called BW2-i; BW2-o; source: phage Mu virions grown on E. coli (ATCC 23724), purified (PEG 8000/NaCl precipitation, CsCl gradient)
T2 sequence (looked up): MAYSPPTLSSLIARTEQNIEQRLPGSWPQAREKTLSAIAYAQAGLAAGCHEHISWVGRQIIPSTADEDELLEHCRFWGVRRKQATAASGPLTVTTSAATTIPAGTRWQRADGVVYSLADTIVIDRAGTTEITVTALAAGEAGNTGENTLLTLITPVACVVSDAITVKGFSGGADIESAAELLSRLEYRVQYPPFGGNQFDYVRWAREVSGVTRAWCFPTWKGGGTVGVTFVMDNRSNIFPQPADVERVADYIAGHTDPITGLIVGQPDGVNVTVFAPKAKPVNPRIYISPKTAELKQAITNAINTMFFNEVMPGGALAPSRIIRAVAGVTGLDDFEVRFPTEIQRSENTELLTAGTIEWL

T3: tail sheath protein gp39 (phage Mu, UniProt P79678 1-495)
T3 construct: tail sheath protein gp39 of myophage Mu, as it stands in the virion; Hexameric rings, 30 of them stacked in the tail; Model deposited here; source: phage Mu virions grown on E. coli (ATCC 23724), purified (PEG 8000/NaCl precipitation, CsCl gradient)
T3 sequence (looked up): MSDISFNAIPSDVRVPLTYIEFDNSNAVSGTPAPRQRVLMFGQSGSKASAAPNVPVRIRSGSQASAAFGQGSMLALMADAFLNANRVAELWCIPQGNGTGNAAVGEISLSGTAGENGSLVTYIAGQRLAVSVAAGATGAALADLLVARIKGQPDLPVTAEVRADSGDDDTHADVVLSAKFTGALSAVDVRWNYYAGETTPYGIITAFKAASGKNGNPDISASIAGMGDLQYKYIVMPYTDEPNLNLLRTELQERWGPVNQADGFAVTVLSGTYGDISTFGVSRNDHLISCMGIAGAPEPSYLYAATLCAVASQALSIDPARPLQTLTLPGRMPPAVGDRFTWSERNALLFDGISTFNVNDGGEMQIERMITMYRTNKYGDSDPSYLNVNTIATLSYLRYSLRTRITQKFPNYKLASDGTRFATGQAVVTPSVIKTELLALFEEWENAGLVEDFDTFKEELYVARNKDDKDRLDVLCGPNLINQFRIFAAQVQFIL

T4: tube initiator protein gp43 (phage Mu, UniProt P08557 1-495)
T4 construct: tube initiator protein gp43 (N protein, DNA circularization protein) of myophage Mu, as it stands in the virion; Hexamer; Model deposited here; also called N protein; DNA circularization protein; source: phage Mu virions grown on E. coli (ATCC 23724), purified (PEG 8000/NaCl precipitation, CsCl gradient)
T4 sequence (looked up): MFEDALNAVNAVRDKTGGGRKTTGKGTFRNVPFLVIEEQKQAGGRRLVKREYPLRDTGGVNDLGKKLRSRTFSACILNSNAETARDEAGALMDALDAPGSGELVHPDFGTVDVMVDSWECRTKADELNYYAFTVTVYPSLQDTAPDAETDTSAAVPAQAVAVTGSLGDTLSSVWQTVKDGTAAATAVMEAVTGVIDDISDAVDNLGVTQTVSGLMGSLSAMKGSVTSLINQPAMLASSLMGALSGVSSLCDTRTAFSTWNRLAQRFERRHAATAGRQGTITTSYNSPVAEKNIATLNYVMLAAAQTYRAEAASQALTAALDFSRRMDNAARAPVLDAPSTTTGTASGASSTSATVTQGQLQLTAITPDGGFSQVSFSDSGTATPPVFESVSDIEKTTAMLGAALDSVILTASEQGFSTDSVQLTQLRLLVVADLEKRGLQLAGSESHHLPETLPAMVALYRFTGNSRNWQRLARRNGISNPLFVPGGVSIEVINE

T5: G(+) type fiber protein gp49 (phage Mu, UniProt Q9T1V0 1-504)
T5 construct: G(+) type tail fiber protein gp49 of myophage Mu, as it stands in the virion; only the N-terminus was modelled; Trimer; six fibers in the baseplate; Model deposited here; source: phage Mu virions grown on E. coli (ATCC 23724), purified (PEG 8000/NaCl precipitation, CsCl gradient)
T5 sequence (looked up): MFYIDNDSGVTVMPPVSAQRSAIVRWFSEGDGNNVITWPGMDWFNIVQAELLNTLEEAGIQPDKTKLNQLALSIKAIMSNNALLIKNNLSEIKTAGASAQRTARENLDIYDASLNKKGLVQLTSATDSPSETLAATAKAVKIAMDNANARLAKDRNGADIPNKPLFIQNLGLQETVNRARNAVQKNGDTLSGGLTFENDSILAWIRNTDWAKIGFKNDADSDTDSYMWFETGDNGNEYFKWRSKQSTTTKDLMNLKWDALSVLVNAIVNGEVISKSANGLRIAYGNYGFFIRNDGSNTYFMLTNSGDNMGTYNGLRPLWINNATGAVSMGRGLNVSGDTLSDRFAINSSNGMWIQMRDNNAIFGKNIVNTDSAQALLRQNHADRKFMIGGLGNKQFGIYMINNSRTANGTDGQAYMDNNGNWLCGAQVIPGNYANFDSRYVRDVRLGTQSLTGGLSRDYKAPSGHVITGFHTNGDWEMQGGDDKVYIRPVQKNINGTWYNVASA

B1: spike protein gp45 (natural protein, phage Mu, UniProt Q9T1V4 1-197, looked up)
chain: MERVNDSALNRLLTPLMRRVRLMLARAVVNVINDGRKVQNLQVGLLDDEESDEVERLQNYGHFSVPLPGAEALIACVGAQRDQGIAVVVEDRRYRPTNLEPGDAGIYHHEGHRIRLTKDGRCIITCKTVEVYADESMTVDTPRTTFTGDVEIQKGLGVKGKSQFDSNITAPDAIINGKSTDKHIHRGDSGGTTGPMQ
notes: baseplate spike protein gp45 of myophage Mu, as it stands in the virion; Trimer; Model deposited here; source: phage Mu virions grown on E. coli (ATCC 23724), purified (PEG 8000/NaCl precipitation, CsCl gradient)
B2: baseplate wedge protein 1 (BW1) gp46 (natural protein, phage Mu, UniProt Q9T1V3 1-145, looked up)
chain: MTDLAIIWTNGRGDIAQDGIDMLTDDSLTTDVTISLFTDRRALDSDTLPDGSDDRRGWWGDSYRDRPIGSRLWLLSREKATPDTLERARGYAEEALEWLKTAGRVSAINVRAEQLHQGWLYLYIALTLPDGSVIPYEFKAAFNGV
notes: baseplate wedge protein 1 gp46 of myophage Mu, as it stands in the virion; One copy in each of the six wedges; Model deposited here; source: phage Mu virions grown on E. coli (ATCC 23724), purified (PEG 8000/NaCl precipitation, CsCl gradient)
B3: baseplate wedge protein 3 (BW3) gp48 (natural protein, phage Mu, UniProt Q9T1V1 1-180, looked up)
chain: MAVTPWQTAFLQLLPSGLAWNKSPDSKLSALAQAISDVIATAADDARQMLRERFPSTSRWYLGEWESFLGLPDCTSENGTLSERQRAAANKMRMTGNLSRRFYEWLAAQYGFTVRLTDSTEGQWVTQVNIYGIKNYRNATVLDNVLTPLRVYESGALECLLEKYKPAHQIYKFVYHDGDN
notes: baseplate wedge protein 3 gp48 of myophage Mu, as it stands in the virion; One copy in each of the six wedges; Model deposited here; source: phage Mu virions grown on E. coli (ATCC 23724), purified (PEG 8000/NaCl precipitation, CsCl gradient)

Assays:
Test in all cases: cryo-EM structure; purified phage Mu virions in the extended state (native phage) in phage buffer (10 mM MgCl2, 5 mM NaCl, 10 mM Tris-HCl, pH 7.4); icosahedral, symmetry-mismatch and local reconstruction; 3.2 Å (3-fold capsid), 3.4 Å (portal-adaptor), 3.5 Å (terminator-tail), 3.3 Å (baseplate)
[1] = biological target: T1, hub protein gp44; conditions: both partners purified
[2] = biological target: the molecule itself
[3] = biological target: T2, baseplate wedge protein 2 (BW2) gp47; conditions: both partners purified
[4] = biological target: B3; conditions: both partners purified
[5] = biological target: T3, tail sheath protein gp39; conditions: both partners purified
[6] = biological target: T4, tube initiator protein gp43; conditions: both partners purified
[7] = biological target: T5, G(+) type fiber protein gp49; conditions: both partners purified

Binder | binding result [1] | stoichiometry N [2] | binding result [3] | binding result [4] | binding result [5] | binding result [6] | binding result [7]
B1 | binds | 3 |  |  |  |  | 
B2 |  |  | binds | binds | binds | binds | 
B3 |  |  | binds |  |  | binds | binds
